Data from patent US20250296975A1.

Molecular target: His-tagged T-cell immunoreceptor with Ig and ITIM domains (TIGIT) (UniProt Q495A1)
Assay: biolayer interferometry, His-tagged TIGIT

Kd: 3.12 nM
B1: anti-TIGIT antibody TIG1 (antibody, from another filing, V domains shown)
VH: DVQLVESGGGLVQPGGSRKLSCAASGFTFSNFGMHWVRQAPEKGLEWVAFISSGSSSIYYADTVKGRFTISRDNPKNTLFLQMTSLRSEDTAMYYCARMRLDYYAMDYWGQGTSVTVSS
VL: DVQITQSPSYLAASPGETITINCRASKSISKYLAWYQEKPGKTNKLLIYSGSTLQSGIPSRFSGSGSGTDFTLTISSLEPEDFAMYYCQQHNEYPWTFGGGTKLEIK
